What is called Kd is the free concentration of one partner at which half of the binding sites on the other are occupied at equilibrium, for simple one-to-one binding. A high value points to a looser complex. The koff is a measure of how fast the partners let go of each other. As usually defined, the kon is the rate constant with which the complex forms.

Assay [1] deals with human CTLA4 (hCTLA4-His) (human, UniProt P16410 36-161, limits assumed). The assay is described as follows: SPR Biacore T200; binder captured on protein A chip, target as analyte. The method, then: Binding affinities of the fusion proteins against human CTLA4 (hCTLA4-His) or human PD-L1 (hPDL1) were measured by surface plasmon resonance (SPR) using Biacore™ T200 biosensor equipped with pre-immobilized protein A sensor chips. A CTLA4 antibody CT4-4G12-IgG1 (CT4) was used as a control. ATOR1015-CD86 (CD86) and KN035-IgG1 (with D265A mutation in heavy chain constant domain) were also used as controls.
A general note: Surface plasmon resonance follows binding to a sensor surface in real time, without labels.

For assay [2], the target named is T1, 6×Histidine-tagged human PD-L1 protein (hPDL1-His) (human, UniProt Q9NZQ7 19-238).
T1 construct: also called hPL1-His; His-tagged human PD-L1
The assay can be described thus: SPR Biacore T200; binder captured on protein A chip, hPL1-His 1.5625-200 nM as analyte. The protocol: Dissociation was monitored for 400 seconds. The chip was regenerated after the last injection of each titration with Glycine (pH 2.0, 30 μL/min for 12 seconds). As a person of ordinary skill in the art would understand, the same method with appropriate adjustments for parameters (e.g., fusion protein concentration) was performed for each tested fusion protein.
Kinetic association rates (kon) and dissociation rates (koff) were obtained simultaneously by fitting the data globally to a 1:1 Langmuir binding model (Karlsson, R. Roos, H. Fagerstam, L. Petersson, B., 1994. Methods Enzymology 6. 99-110) using Biacore™ T200 Evaluation Software 3.0. Affinities were calculated from the quotient of the kinetic rate constants (KD=koff/kon). […] Non-specific effects were not observed.

In assay [3] the target is T1, 6×Histidine-tagged human PD-L1 protein …. The assay is described as follows: SPR Biacore T200; binder captured on protein A chip, target as analyte.
For assay [4] the target is unchanged. Described as above. The source holds these as a separate data set.

Sequence of human CTLA4 (hCTLA4-His) (P16410 36-161 limits assumed): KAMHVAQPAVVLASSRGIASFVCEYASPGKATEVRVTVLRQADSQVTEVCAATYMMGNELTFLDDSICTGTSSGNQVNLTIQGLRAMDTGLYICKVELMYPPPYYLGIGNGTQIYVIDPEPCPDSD
T1 sequence (Q9NZQ7 19-238 limits assumed): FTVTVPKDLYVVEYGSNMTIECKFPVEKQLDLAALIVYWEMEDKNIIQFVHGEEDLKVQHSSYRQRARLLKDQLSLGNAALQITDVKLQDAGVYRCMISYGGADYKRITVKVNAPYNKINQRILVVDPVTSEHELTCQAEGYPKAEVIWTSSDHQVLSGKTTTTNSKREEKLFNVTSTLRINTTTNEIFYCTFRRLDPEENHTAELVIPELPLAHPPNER

B1: PDL1-CD86-3A-IgG1 (antibody)
heavy: EVQLLESGGGLVQPGGSLRLSCAASGFTFSSYIMMWVRQAPGKGLEWVSSIYPSGGITFYADTVKGRFTISRDNSKNTLYLQMNSLRAEDTAVYYCARIKLGTVTTVDYWGQGTLVTVSSASTKGPSVFPLAPSSKSTSGGTAALGCLVKDYFPEPVTVSWNSGALTSGVHTFPAVLQSSGLYSLSSVVTVPSSSLGTQTYICNVNHKPSNTKVDKKVEPKSCDKTHTCPPCPAPELLGGPSVFLFPPKPKDTLMISRTPEVTCVVVDVSHEDPEVKFNWYVDGVEVHNAKTKPREEQYNSTYRVVSVLTVLHQDWLNGKEYKCKVSNKALPAPIEKTISKAKGQPREPQVYTLPPSRDEGGGGSGGGGSAPLKIQAYFNETADLPCQFANSQNLSLSELVVFWQDQENLVLNEVYLGKERFDSVDSKYMGRTSFDSDSWTLRLHNLQIKDKGRYQCIIHHKKPTGMINIHQMNSELSVLAGGGGSGGGGSVSLTCLVKGFYPSDIAVEWESNGQPENNYKTTPPVLDSDGSFFLYSKLTVDKSRWQQGNVFSCSVMHEALHNHYTQKSLSLSPGK
light: QSALTQPASVSGSPGQSITISCTGTSSDVGGYNYVSWYQQHPGKAPKLMIYDVSNRPSGVSNRFSGSKSGNTASLTISGLQAEDEADYYCSSYTSSSTRVFGTGTKVTVLGQPKANPTVTLFPPSSEELQANKATLVCLISDFYPGAVTVAWKADGSPVKAGVETTKPSKQSNNKYAASSYLSLTPEQWKSHRSYSCQVTHEGSTVEKTVAPTECS
notes: IgG1
Take B1: in assay [1], the Kd came out at 1740 pM, the off-rate (koff) stood at 0.000693 s⁻¹ and the kon turned out to be 397000 M⁻¹ s⁻¹.

B2: PDL1-CD86-3A-IgG4 (antibody)
chain 1: EVQLLESGGGLVQPGGSLRLSCAASGFTFSSYIMMWVRQAPGKGLEWVSSIYPSGGITFYADTVKGRFTISRDNSKNTLYLQMNSLRAEDTAVYYCARIKLGTVTTVDYWGQGTLVTVSSASTKGPSVFPLAPCSRSTSESTAALGCLVKDYFPEPVTVSWNSGALTSGVHTFPAVLQSSGLYSLSSVVTVPSSSLGTKTYTCNVDHKPSNTKVDKRVESKYGPPCPSCPAPEFLGGPSVFLFPPKPKDTLMISRTPEVTCVVVDVSQEDPEVQFNWYVDGVEVHNAKTKPREEQFNSTYRVVSVLTVLHQDWLNGKEYKCKVSNKGLPSSIEKTISKAKGQPREPQVYTLPPSQEEGGGGSGGGGSAPLKIQAYFNETADLPCQFANSQNLSLSELVVFWQDQENLVLNEVYLGKERFDSVDSKYMGRTSFDSDSWTLRLHNLQIKDKGRYQCIIHHKKPTGMINIHQMNSELSVLAGGGGSGGGGSVSLTCLVKGFYPSDIAVEWESNGQPENNYKTTPPVLDSDGSFFLYSRLTVDKSRWQEGNVFSCSVMHEALHNHYTQKSLSLSLGK
chain 2: B1 light
Turning to B2, in assay [1], binding was put at a Kd of 1880 pM, the koff turned out to be 0.000684 s⁻¹ and the kon stood at 364000 M⁻¹ s⁻¹.

B3: PDL1-3F2 (antibody, human IgG1, kappa)
heavy: not shown
light: DIVLTQSPDFQSVTPKEKVTITCRASQSISNNLHWYQQKPDESPKLLIKYASQSISGIPSRFSGSGSGTDFTLTINSVEAEDFAMYFCQQSKSWPFTFGQGTRLEIKRTVAAPSVFIFPPSDEQLKSGTASVVCLLNNFYPREAKVQWKVDNALQSGNSQESVTEQDSKDSTYSLSSTLTLSKADYEKHKVYACEVTHQGLSSPVTKSFNRGEC
notes: also called PDL1-3F2-IgG1; PDL1-3F2 IgG1
Consider B3, for which the Kd in assay [2] is 559 pM; in assay [3], 372 pM; in assay [4], 372 pM. Moreover, the figures for the koff in assay [2], in assay [3] and in assay [4] were 0.0013 s⁻¹, 0.000652 s⁻¹ and 0.000652 s⁻¹, respectively. In addition, the kon in assay [2] came to 2.32e+06 M⁻¹ s⁻¹; in assay [3], 1.75e+06 M⁻¹ s⁻¹; in assay [4] it was 1.75e+06 M⁻¹ s⁻¹.

B4: 3F2-hIL21-3A (antibody, IgG1)
heavy: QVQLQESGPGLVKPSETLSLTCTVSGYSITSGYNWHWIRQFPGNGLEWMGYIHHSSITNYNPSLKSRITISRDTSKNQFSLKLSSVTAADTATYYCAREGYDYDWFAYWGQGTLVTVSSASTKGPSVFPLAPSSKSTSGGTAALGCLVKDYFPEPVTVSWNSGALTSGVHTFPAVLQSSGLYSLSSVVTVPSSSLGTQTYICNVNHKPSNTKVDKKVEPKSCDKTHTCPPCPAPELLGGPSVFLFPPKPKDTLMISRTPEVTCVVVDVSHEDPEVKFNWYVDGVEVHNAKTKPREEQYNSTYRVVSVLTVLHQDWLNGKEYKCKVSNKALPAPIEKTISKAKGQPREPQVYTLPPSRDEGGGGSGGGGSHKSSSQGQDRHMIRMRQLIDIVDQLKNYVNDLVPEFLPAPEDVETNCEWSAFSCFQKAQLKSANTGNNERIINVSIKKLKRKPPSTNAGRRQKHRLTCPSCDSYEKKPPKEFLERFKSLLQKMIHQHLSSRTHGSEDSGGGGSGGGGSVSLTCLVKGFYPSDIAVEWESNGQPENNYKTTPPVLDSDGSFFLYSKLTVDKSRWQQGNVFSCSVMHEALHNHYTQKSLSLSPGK
light: B3 light
notes: IgG1
In assay [3], B4 yielded a Kd of 515 pM, a koff of 0.000613 s⁻¹ and a kon of 1.19e+06 M⁻¹ s⁻¹.

B5: 3F2-hIL7-3A (antibody)
heavy: QVQLQESGPGLVKPSETLSLTCTVSGYSITSGYNWHWIRQFPGNGLEWMGYIHHSSITNYNPSLKSRITISRDTSKNQFSLKLSSVTAADTATYYCAREGYDYDWFAYWGQGTLVTVSSASTKGPSVFPLAPSSKSTSGGTAALGCLVKDYFPEPVTVSWNSGALTSGVHTFPAVLQSSGLYSLSSVVTVPSSSLGTQTYICNVNHKPSNTKVDKKVEPKSCDKTHTCPPCPAPELLGGPSVFLFPPKPKDTLMISRTPEVTCVVVDVSHEDPEVKFNWYVDGVEVHNAKTKPREEQYNSTYRVVSVLTVLHQDWLNGKEYKCKVSNKALPAPIEKTISKAKGQPREPQVYTLPPSRDEGGGGSGGGGSDCDIEGKDGKQYESVLMVSIDQLLDSMKEIGSNCLNNEFNFFKRHICDANKEGMFLFRAARKLRQFLKMNSTGDFDLHLLKVSEGTTILLNCTGQVKGRKPAALGEAQPTKSLEENKSLKEQKKLNDLCFLKRLLQEIKTCWNKILMGTKEHGGGGSGGGGSVSLTCLVKGFYPSDIAVEWESNGQPENNYKTTPPVLDSDGSFFLYSKLTVDKSRWQQGNVFSCSVMHEALHNHYTQKSLSLSPGK
light: B3 light
notes: IgG1
As to B5, in assay [4], the dissociation constant Kd was 493 pM, the off-rate constant (koff) stood at 0.000879 s⁻¹ and the kon was 1.78e+06 M⁻¹ s⁻¹.

B6: 3F2-hIL7-3A-mIFNa4 (antibody, IgG1)
heavy: QVQLQESGPGLVKPSETLSLTCTVSGYSITSGYNWHWIRQFPGNGLEWMGYIHHSSITNYNPSLKSRITISRDTSKNQFSLKLSSVTAADTATYYCAREGYDYDWFAYWGQGTLVTVSSASTKGPSVFPLAPSSKSTSGGTAALGCLVKDYFPEPVTVSWNSGALTSGVHTFPAVLQSSGLYSLSSVVTVPSSSLGTQTYICNVNHKPSNTKVDKKVEPKSCDKTHTCPPCPAPELLGGPSVFLFPPKPKDTLMISRTPEVTCVVVDVSHEDPEVKFNWYVDGVEVHNAKTKPREEQYNSTYRVVSVLTVLHQDWLNGKEYKCKVSNKALPAPIEKTISKAKGQPREPQVYTLPPSRDEGGGGSGGGGSDCDIEGKDGKQYESVLMVSIDQLLDSMKEIGSNCLNNEFNFFKRHICDANKEGMFLFRAARKLRQFLKMNSTGDFDLHLLKVSEGTTILLNCTGQVKGRKPAALGEAQPTKSLEENKSLKEQKKLNDLCFLKRLLQEIKTCWNKILMGTKEHGGGGSGGGGSVSLTCLVKGFYPSDIAVEWESNGQPENNYKTTPPVLDSDGSFFLYSKLTVDKSRWQQGNVFSCSVMHEALHNHYTQKSLSLSPGKGGGGSGGGGSGGGGSGGGGSCDLPHTYNLGNKRALTVLEEMRRLPPLSCLKDRKDFGFPLEKVDNQQIQKAQAILVLRDLTQQILNLFTSKDLSATWNATLLDSFCNDLHQQLNDLKACVMQEPPLTQEDSLLAVRTYFHRITVYLRKKKHSLCAWEVIRAEVWRALSSSTNLLARLSEEKE
light: B3 light
notes: IgG1
B6: in assay [4], the Kd is 685 pM, the koff is 0.000803 s⁻¹ and the kon was determined as 1.17e+06 M⁻¹ s⁻¹.

B7: 3F2-hIL21-3A-mIFNa4 (antibody, IgG1)
heavy: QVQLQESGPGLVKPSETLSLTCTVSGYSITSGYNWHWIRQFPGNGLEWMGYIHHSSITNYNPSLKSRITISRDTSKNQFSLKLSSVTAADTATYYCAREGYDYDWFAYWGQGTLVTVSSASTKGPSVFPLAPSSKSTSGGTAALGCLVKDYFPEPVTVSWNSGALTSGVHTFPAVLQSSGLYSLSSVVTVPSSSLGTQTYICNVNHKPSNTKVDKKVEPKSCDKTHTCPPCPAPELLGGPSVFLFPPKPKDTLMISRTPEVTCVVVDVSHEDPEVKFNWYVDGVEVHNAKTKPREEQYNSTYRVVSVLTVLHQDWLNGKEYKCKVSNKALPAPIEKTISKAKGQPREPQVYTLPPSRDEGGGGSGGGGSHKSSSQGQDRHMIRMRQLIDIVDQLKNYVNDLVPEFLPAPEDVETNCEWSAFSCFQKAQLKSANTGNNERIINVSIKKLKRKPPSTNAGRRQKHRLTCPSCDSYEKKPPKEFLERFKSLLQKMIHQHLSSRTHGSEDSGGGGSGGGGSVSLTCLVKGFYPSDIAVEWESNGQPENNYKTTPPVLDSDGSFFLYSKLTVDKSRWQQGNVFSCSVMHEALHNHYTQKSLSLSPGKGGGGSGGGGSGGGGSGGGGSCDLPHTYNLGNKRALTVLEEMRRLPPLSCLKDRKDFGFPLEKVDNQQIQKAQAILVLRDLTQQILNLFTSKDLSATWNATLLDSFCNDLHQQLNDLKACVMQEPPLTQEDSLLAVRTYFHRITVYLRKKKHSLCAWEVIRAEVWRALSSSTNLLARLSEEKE
light: B3 light
notes: IgG1
In assay [3], B7 came in with a Kd of 613 pM, a koff of 0.00072 s⁻¹ and a kon of 1.17e+06 M⁻¹ s⁻¹.

These data come from patent publication US20240360201A1 (BIOCYTOGEN PHARMACEUTICALS BEIJING, published 2024).
